According to US7083511:

What was measured:
[1] = target: T1, GST-SGK (full length, wild type), O00141
T1 chain: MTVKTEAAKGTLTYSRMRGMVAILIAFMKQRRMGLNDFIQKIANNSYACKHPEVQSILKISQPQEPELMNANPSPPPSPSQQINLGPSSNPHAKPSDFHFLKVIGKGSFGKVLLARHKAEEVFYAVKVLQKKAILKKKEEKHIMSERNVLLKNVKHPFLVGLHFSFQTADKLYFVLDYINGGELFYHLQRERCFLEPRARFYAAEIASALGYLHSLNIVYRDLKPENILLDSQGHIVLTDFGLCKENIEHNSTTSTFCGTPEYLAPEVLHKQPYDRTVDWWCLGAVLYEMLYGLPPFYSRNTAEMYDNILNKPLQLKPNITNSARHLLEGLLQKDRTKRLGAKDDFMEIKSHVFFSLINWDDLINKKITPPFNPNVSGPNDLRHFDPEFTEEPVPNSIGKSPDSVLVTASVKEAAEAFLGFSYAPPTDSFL

[2] = target: GST-SGK with Lys127 mutated to Ala (kinase dead), O00141
[3] = target: GST-SGK with both Thr256 and Ser422 mutated to Ala, O00141
GST-SGK2α (wild type) = target: T2, GST-SGK2α (wild type)
T2 chain: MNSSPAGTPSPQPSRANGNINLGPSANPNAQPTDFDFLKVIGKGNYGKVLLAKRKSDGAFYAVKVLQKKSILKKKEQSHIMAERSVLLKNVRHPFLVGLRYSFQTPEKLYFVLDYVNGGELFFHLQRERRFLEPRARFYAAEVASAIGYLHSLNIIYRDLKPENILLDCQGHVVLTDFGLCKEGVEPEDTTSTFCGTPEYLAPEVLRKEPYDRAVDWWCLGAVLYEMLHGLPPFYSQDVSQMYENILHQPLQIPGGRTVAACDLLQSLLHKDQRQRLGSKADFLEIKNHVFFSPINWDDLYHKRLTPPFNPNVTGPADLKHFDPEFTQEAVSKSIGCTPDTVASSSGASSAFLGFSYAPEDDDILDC

GST-SGK3 (wild type) = target: T3, GST-SGK3 (wild type)
T3 chain: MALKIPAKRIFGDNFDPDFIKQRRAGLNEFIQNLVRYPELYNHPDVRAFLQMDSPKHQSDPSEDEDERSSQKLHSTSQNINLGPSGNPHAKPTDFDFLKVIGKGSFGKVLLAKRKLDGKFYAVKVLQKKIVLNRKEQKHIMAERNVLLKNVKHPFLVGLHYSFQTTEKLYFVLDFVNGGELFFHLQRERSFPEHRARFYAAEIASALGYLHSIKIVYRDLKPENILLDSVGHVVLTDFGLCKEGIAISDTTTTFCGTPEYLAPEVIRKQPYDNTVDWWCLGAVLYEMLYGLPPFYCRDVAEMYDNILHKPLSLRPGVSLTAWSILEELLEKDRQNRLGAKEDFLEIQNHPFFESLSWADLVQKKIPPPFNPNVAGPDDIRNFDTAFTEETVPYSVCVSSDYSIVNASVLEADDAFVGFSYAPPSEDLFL

[4] = target: GST-SGK[T256A/S422D], O00141
[5] = target: GST-ΔN-SGK(61-431)[S422D], O00141

GST-PKBα, P31749, sequence (P31749 whole entry, looked up): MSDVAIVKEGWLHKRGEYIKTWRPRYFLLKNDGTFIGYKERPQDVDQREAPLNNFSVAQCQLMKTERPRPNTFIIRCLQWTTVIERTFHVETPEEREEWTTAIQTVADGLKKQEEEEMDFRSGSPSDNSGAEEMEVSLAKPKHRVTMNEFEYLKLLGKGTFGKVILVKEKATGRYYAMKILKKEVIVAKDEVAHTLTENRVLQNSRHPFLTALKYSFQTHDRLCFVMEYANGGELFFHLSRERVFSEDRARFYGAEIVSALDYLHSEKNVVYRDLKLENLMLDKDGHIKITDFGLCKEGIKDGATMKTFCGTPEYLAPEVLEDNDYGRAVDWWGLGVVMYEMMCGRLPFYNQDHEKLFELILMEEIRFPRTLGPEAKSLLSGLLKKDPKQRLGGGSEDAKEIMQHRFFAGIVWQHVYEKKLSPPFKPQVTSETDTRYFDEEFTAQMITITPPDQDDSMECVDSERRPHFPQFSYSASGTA

B1: GST-PDK1 (protein)
chain: MARTTSQLYDAVPIQSSVVLCSCPSPSMVRTQTESSTPPGIPGGSRQGPAMDGTAAEPRPGAGSLQHAQPPPQPRKKRPEDFKFGKILGEGSFSTVVLARELATSREYAIKILEKRHIIKENKVPYVTRERDVMSRLDHPFFVKLYFTFQDDEKLYFGLSYAKNGELLKYIRKIGSFDETCTRFYTAEIVSALEYLHGKGIIHRDLKPENILLNEDMHIQITDFGTAKVLSPESKQARANSFVGTAQYVSPELLTEKSACKSSDLWALGCIIYQLVAGLPPFRAGNEYLIFQKIIKLEYDFPEKFFPKARDLVEKLLVLDATKRLGCEEMEGYGPLKAHPFFESVTWENLHQQTPPKLTAYLPAMSEDDEDCYGNYDNLLSQFGCMQVSSSSSSHSLSASDTGLPQRSGSNIEQYIHDLDSNSFELDLQFSEDEKRLLLEKQAGGNPWHQFVENNLILKMGPVDKRKGLFARRRQLLLTEGPHLYYVDPVNKVLKGEIPWSQELRPEAKNFKTFFVHTPNRTYYLMDPSGNAHKWCRKIQEVWRQRYQSHPDAAVQ
- maximal stoichiometry of phosphorylation by PDK1 (GST-PKBα, P31749): compared to 0.5 mol/mol for PKBα
- increase of SGK activity (Crosstide assay) after phosphorylation by PDK1 [1]: phosphor-ylation was accompanied by a 10-fold increase in the basal activity
- maximal stoichiometry of phosphorylation by PDK1 [1]: the maximal stoichiometry of phosphorylation that could be attained was 0.05 mol/mol
- stoichiometry of phosphorylation at 1.5 µg/ml PDK1, 30 min [1]: close to 1 mol/mol for SGK1 and SGK3
- phosphorylation by PDK1 [2]: This mutant was phosphorylated at the same rate, and to the same extent, as wild type SGK
- reduction of phosphorylation by PDK1 [3]: reduced phosphorylation by 80-90%
- stoichiometry of phosphorylation at 1.5 µg/ml PDK1, 30 min (GST-SGK2α (wild type)): 0.2 mol/mol for SGK2
- activation and phosphorylation by PDK1, against wild type SGK2α (GST-SGK2α[S356D]): SGK2[Ser356Asp] was activated (FIG. 17B) and phosphorylated (FIG. 17E) by PDK1 much more effectively than wild type SGK2α
- phosphate incorporated, 30 min with 1.5 µg/ml PDK1 and MgATP (GST-SGK2α[S356D]): incorporation of 1.2 and 1.3 mol phosphate per mol protein, respectively
- phosphate incorporated, 30 min with 1.5 µg/ml PDK1 and MgATP (GST-SGK3 (wild type)): incorporation of 1.2 and 1.3 mol phosphate per mol protein, respectively
- stoichiometry of phosphorylation at 1.5 µg/ml PDK1, 30 min (GST-SGK3 (wild type)): close to 1 mol/mol for SGK1 and SGK3
- extent of phosphorylation by PDK1 (GST-SGK[S422A], O00141): The mutation of Ser422 to Ala did not affect the extent of phosphorylation of SGK by PDK1
- reduction of the extent of activation by PDK1 (GST-SGK[S422A], O00141): reduced the extent of activation by 60%
- rate of phosphorylation and activation by PDK1, against wild type (GST-SGK[S422D], O00141): stimulated the rate of phosphorylation (FIG. 5C) and activation (FIG. 5D) by PDK1 at least six-fold
- reduction of phosphorylation by PDK1 [4]: phosphorylation by PDK1 was reduced by 80-90%
- reduction of phosphorylation by PDK1 (GST-SGK[T256A], O00141): reduced phosphorylation by 80-90%
- stoichiometry of phosphorylation by PDK1 [5]: phosphorylated by PDK1 to a stoichiometry of 0.6 mol/mol protein
